Laboratory results from article PMC9309889, “Cryo-EM Structure of an Atypical Proton-Coupled Peptide Transporter: Di- and Tripeptide Permease C” (Frontiers in Molecular Biosciences, 2022).

Target: the molecule itself
Test: cryo-EM structure; DtpC-Nb26 complex in 0.015% DDM, 100 mM NaCl, 10 mM HEPES pH 7.5, 0.5 mM TCEP; inverted dimer at 3.0 Å, local focused refinement on one transporter at 2.7 Å

B1: Di- and tripeptide permease C (DtpC), wild type (natural protein, Escherichia coli, UniProt P39276 1-485, looked up)
chain: MKTPSQPRAIYYIVAIQIWEYFSFYGMRALLILYLTHQLGFDDNHAISLFSAYASLVYVTPILGGWLADRLLGNRTAVIAGALLMTLGHVVLGIDTNSTFSLYLALAIIICGYGLFKSNISCLLGELYDENDHRRDGGFSLLYAAGNIGSIAAPIACGLAAQWYGWHVGFALAGGGMFIGLLIFLSGHRHFQSTRSMDKKALTSVKFALPVWSWLVVMLCLAPVFFTLLLENDWSGYLLAIVCLIAAQIIARMMIKFPEHRRALWQIVLLMFVGTLFWVLAQQGGSTISLFIDRFVNRQAFNIEVPTALFQSVNAIAVMLAGVVLAWLASPESRGNSTLRVWLKFAFGLLLMACGFMLLAFDARHAAADGQASMGVMISGLALMGFAELFIDPVAIAQITRLKMSGVLTGIYMLATGAVANWLAGVVAQQTTESQISGMAIAAYQRFFSQMGEWTLACVAIIVVLAFATRFLFSTPTNMIQESND
notes: Di- and tripeptide permease C (DtpC, YjdL) of Escherichia coli; full-length cDNA amplified from the E. coli genome, cloned into pNIC-CTHF; The His tag was cut off with TEV protease; also called YjdL; DtpC WT; source: E. coli C41(DE3), purified in DDM (Ni-NTA, TEV cleavage, negative IMAC, SEC); not shown: His-Tag, C-terminal, cleaved
- stoichiometry N: 2
